Experimental findings from publication PMC7321188 are described below.

Holding throughout (conditions): remark: other sources report otherwise
In assay [1] the target is G2019S LRRK2-GFP (Parkinson's disease mutant of Leucine-Rich Repeat Kinase 2, GFP fusion) (UniProt Q5S007). Kind of assay: fluorescence fluctuation spectroscopy (number and brightness) by TIRF microscopy; TIRF, near the plasma membrane of live differentiated SH-SY5Y cells; brightness normalised to monomeric GFP.
For assay [2] the target is unchanged. Kind of assay: fluorescence fluctuation spectroscopy (number and brightness + photon counting histogram); two-photon confocal, cytosol of live differentiated SH-SY5Y cells at 37 °C; brightness normalised to monomeric GFP; LRRK2-GFP below 300 nM.
Assay [3] concerns the target WT LRRK2-GFP (Leucine-Rich Repeat Kinase 2, wild type, GFP fusion) (UniProt Q5S007). Kind of assay: fluorescence fluctuation spectroscopy (number and brightness) by TIRF microscopy; TIRF, near the plasma membrane of live differentiated SH-SY5Y cells; brightness normalised to monomeric GFP.

Consider “G2019S LRRK2-GFP (Parkinson's disease mutant of Leucine-Rich Repeat Kinase 2, GFP fusion), Q5S007 1-2527”, for which the normalized brightness (sample over the monomer control) in assay [1] worked out at 2.5; in assay [2], 2.1. In assay [3], “WT LRRK2-GFP (Leucine-Rich Repeat Kinase 2, wild type, GFP fusion), Q5S007 1-2527” came in with a normalized brightness (sample over the monomer control) of 2.5.
